Data on 1 molecule can be found in publication PMC4725817 (Scientific Reports, 2016).

For test [1], the target named is T1, EBOV glycoprotein lacking the transmembrane domain (Kikwit) (Zaire ebolavirus, Kikwit-95, UniProt P87666). Put plainly: cell-based or functional assay.
The target of test [2] is T1, EBOV glycoprotein lacking the …. Put plainly: ELISA. Particulars: both partners purified.

T1 sequence (P87666 33-650): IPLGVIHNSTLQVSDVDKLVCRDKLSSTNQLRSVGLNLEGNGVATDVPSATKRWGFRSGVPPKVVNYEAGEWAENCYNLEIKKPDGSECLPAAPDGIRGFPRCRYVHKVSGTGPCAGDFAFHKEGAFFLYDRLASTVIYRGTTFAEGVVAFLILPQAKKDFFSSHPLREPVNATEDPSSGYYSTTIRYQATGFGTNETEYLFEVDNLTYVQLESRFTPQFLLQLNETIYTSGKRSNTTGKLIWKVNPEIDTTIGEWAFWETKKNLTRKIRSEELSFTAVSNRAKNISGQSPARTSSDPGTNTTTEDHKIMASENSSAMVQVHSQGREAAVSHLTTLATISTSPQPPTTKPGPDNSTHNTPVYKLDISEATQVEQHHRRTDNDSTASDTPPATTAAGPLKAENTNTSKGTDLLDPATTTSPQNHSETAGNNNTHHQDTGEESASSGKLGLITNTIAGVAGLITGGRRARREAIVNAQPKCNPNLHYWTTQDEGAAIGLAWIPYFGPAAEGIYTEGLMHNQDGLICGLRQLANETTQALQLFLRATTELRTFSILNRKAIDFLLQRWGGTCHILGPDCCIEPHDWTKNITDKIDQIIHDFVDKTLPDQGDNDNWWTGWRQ

B1: KZ52 (human EBOV mAb, monospecific IgG1) (antibody, V domains shown)
VH: EVQLLESGGGLVKPGGSLRLSCAASGFTLINYRMNWVRQAPGKGLEWVSSISSSSSYIHYADSVKGRFTISRDNAENSLYLQMNSLRAEDTAVYYCVREGPRATGYSMADVFDIWGQGTMVTVSS
VL: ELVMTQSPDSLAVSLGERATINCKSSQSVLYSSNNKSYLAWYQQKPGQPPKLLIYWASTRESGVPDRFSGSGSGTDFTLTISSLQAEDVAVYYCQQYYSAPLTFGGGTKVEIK
notes: also called KZ52 IgG1; monospecific KZ52
For the molecule B1, in test [1], the “IC50 of neutralisation of VSV-GP_(EBOV), infection of Vero cells (eGFP)” value is 2.7 nM. The EC50 in test [2] came to 0.01 nM.
